“And” between values parts separate entries of the source, which are not always exact repeats. Equal entries are not always repeated. Ends that are not written are not given here. * marks the point of attachment. FITC = O=C1OC2(c3ccc(O)cc3Oc3cc(O)ccc32)c2ccc(NC(=S)*)cc21
Assays:
Settings in all cases: both partners purified
[1] = target: hHsp70-CSSCC (hHsp70 C267S/C306S) (human, UniProt P0DMV8 1-641, C267S | C306S); experiment: fluorescence polarisation; steady state; 20 nM FAR with increasing hHsp70 or mutant; apo (no nucleotide); Buffer B; RT, 60 min; single site binding model
hHsp70-CSSAS (hHsp70 …) = target: hHsp70-CSSAS (hHsp70 C267S/C306S/C574A/C603S) (human, UniProt P0DMV8 1-641, C267S | C306S | C574A | C603S); experiment: as above
hHsp70-CSSAA (hHsp70 …) = target: hHsp70-CSSAA (hHsp70 C267S/C306S/C574A/C603A) (human, UniProt P0DMV8 1-641, C267S | C306S | C574A | C603A); experiment: as above
[2] = target: T1, WT hHsp70 (human HspA1A), full-length (residues 1–641) (human, UniProt P0DMV8 1-641); experiment: as above
T1 construct: The deglutathionylated sample (glutathionylated, then 10 mM DTT) carries no modification and is written as this molecule; the label in the row tells which sample it was; also called HspA1A/B; untreated control (-C); source: monomeric peak collected

[3] = target: hHsp70 T204A (binds but does not hydrolyze ATP) (human, UniProt P0DMV8 1-641, T204A); experiment: fluorescence polarisation; kinetic time course at RT; 20 nM FAR with 10 μM hHsp70 or mutant, apo or with ADP/ATP (1 mM; 0.5 mM ADP in Fig. 7C); 1 mM diamide with 1 mM GSH added at 60 min, 10 mM DTT at 120 min
[4] = target: hHsp70-CSSCA (hHsp70 C267S/C306S/C603A) (human, UniProt P0DMV8 1-641, C267S | C306S | C603A); experiment: as above
[5] = target: hHsp70-CSSAC (hHsp70 C267S/C306S/C574A) (human, UniProt P0DMV8 1-641, C267S | C306S | C574A); experiment: as above
[6] = target: T1, WT hHsp70 (human HspA1A), full-length …; experiment: fluorescence polarisation; steady state; 20 nM FAR with increasing hHsp70 (control, glutathionylated or deglutathionylated); 0.5 mM ADP in Buffer B (50 mM Tris-HCl pH 7.5, 100 mM KCl, 5 mM MgCl2); RT, 60 min; single site binding model
hHsp70-CSSSS (hHsp70 …) = target: hHsp70-CSSSS (hHsp70 C267S/C306S/C574S/C603S) (human, UniProt P0DMV8 1-641, C267S | C306S | C574S | C603S); experiment: fluorescence polarisation; steady state; 20 nM FAR with increasing hHsp70 or mutant; apo (no nucleotide); Buffer B; RT, 60 min; single site binding model
hHsp70-CSSSS (hHsp70 C267S/C306S/C574S/C603S), sequence (P0DMV8 whole entry C267S/C306S/C574S/C603S): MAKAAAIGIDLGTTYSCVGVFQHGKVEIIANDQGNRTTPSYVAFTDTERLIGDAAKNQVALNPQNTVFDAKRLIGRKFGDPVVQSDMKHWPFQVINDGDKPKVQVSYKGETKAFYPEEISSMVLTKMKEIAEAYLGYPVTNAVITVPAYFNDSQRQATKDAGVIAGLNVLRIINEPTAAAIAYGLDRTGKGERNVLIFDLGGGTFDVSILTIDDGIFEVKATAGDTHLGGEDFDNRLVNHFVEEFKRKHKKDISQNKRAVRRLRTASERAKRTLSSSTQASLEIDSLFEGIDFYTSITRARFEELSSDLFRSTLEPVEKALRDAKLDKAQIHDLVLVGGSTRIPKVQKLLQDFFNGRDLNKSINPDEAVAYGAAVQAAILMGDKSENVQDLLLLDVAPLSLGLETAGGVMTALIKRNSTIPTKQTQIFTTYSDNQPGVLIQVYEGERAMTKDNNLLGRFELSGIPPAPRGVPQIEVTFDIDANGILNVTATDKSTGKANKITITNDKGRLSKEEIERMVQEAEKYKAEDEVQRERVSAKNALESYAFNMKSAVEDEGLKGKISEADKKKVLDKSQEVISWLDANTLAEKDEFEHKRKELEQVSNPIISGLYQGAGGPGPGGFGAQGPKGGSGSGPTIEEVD

T1 sequence (P0DMV8 whole entry, the tested form may be a part): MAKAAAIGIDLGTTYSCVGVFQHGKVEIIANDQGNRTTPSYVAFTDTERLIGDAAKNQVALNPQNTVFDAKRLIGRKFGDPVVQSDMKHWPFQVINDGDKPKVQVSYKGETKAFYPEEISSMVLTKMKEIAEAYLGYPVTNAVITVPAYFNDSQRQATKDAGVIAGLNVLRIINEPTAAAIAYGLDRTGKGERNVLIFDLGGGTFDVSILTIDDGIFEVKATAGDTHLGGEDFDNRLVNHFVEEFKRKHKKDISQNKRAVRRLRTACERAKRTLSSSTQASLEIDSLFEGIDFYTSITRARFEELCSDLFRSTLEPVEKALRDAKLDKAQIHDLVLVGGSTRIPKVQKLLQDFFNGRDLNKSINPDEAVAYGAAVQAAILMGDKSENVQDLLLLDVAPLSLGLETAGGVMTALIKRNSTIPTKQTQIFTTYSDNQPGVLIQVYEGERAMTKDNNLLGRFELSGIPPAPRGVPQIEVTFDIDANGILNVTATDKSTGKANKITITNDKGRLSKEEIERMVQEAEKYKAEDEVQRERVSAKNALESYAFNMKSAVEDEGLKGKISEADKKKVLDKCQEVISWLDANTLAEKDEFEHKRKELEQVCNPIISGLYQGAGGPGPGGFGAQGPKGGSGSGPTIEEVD
hHsp70-CSSAA (hHsp70 C267S/C306S/C574A/C603A), sequence (P0DMV8 whole entry C267S/C306S/C574A/C603A, the tested form may be a part): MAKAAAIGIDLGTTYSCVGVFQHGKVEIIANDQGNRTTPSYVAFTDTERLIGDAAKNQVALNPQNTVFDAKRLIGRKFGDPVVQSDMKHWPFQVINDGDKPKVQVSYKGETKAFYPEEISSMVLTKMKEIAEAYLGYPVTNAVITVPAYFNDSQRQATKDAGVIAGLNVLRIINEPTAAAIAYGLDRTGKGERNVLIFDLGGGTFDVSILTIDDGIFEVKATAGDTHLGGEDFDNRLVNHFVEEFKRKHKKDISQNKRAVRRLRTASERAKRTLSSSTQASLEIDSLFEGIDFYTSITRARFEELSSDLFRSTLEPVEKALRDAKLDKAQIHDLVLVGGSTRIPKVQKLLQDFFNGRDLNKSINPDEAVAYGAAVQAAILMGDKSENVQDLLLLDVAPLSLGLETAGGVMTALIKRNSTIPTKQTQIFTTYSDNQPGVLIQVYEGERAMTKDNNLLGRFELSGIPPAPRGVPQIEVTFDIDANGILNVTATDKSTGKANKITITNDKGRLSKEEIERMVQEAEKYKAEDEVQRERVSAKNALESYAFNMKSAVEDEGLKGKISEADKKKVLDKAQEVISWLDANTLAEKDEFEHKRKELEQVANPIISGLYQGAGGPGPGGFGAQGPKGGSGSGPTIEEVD
hHsp70 T204A (binds but does not hydrolyze ATP), sequence (P0DMV8 whole entry T204A): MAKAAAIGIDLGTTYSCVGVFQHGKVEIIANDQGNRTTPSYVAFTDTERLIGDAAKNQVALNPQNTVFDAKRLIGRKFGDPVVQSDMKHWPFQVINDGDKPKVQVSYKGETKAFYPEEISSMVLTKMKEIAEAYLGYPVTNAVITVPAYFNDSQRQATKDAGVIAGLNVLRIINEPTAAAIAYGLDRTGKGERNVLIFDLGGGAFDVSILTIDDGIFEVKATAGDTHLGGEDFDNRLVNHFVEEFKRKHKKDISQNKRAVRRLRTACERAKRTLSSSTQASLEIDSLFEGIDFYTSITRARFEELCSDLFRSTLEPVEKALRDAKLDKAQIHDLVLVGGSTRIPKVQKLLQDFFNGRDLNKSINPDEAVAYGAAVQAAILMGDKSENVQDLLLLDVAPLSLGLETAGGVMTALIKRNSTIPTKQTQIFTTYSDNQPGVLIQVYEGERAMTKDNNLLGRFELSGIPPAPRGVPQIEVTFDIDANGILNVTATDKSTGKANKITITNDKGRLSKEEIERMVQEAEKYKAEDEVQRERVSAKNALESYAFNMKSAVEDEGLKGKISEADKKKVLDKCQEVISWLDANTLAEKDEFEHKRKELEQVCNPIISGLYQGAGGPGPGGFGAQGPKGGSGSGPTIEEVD
hHsp70-CSSCC (hHsp70 C267S/C306S), sequence (P0DMV8 whole entry C267S/C306S): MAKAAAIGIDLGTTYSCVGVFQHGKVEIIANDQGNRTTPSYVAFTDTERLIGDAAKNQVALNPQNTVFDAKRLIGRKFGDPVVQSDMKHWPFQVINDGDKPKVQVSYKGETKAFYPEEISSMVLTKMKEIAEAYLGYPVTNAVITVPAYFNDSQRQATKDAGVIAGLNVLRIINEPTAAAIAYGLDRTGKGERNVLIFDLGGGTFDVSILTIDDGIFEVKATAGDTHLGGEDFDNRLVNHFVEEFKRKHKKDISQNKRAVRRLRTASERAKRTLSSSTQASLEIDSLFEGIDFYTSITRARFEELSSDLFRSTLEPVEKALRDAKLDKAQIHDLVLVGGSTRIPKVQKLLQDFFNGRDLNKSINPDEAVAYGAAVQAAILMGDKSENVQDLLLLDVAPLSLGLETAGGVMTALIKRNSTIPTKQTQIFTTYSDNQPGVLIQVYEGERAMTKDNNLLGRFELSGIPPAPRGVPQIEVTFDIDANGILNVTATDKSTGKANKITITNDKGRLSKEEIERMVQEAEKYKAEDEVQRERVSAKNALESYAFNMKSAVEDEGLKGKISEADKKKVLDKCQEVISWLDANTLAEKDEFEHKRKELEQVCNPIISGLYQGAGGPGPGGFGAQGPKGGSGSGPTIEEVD
hHsp70-CSSAC (hHsp70 C267S/C306S/C574A), sequence (P0DMV8 whole entry C267S/C306S/C574A): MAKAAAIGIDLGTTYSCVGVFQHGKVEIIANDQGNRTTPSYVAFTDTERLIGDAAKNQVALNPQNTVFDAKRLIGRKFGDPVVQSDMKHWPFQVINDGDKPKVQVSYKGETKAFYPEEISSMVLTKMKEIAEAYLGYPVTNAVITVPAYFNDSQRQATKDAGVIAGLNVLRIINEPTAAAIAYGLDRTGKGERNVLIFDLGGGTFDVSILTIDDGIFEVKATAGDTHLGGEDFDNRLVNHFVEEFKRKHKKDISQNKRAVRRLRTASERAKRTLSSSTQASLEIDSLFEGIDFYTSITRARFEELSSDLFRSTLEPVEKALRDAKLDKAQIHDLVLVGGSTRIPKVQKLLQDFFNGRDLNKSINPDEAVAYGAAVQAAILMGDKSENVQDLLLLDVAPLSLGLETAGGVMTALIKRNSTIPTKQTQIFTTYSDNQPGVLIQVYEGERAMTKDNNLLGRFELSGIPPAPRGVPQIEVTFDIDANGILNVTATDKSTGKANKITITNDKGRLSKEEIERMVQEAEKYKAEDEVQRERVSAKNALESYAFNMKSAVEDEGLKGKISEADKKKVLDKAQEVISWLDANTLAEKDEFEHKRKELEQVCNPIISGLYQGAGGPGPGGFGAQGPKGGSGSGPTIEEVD
hHsp70-CSSAS (hHsp70 C267S/C306S/C574A/C603S), sequence (P0DMV8 whole entry C267S/C306S/C574A/C603S): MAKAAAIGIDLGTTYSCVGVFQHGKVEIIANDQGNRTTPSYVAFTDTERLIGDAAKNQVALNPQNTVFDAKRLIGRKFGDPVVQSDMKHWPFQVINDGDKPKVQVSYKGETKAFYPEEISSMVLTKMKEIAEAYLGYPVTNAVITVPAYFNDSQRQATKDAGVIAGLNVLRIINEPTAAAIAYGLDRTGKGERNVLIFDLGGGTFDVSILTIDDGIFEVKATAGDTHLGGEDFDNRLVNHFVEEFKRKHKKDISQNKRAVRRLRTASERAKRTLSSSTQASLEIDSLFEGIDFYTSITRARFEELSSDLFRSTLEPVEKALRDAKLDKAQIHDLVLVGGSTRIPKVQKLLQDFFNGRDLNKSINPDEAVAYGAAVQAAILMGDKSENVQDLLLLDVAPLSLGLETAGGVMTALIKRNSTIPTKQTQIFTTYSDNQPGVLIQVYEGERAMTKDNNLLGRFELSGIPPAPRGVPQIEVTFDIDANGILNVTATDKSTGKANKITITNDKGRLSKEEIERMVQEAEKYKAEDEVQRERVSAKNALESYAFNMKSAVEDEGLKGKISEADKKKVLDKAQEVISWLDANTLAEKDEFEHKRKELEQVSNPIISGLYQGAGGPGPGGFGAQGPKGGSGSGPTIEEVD

{FITC}-ALLLSAPRR (fluorescently labeled peptide substrate) [FITC-labeled ALLLSAPRR (FAR) peptide]
Kd [1]: 1350 ± 230 nM
Kd (hHsp70-CSSAS (hHsp70 …)): 1440 ± 540 nM
Kd (hHsp70-CSSAA (hHsp70 …)): 1190 ± 210 nM
Kd [2]: 1120 ± 120 nM
binding result [3]: binds
binding result [4]: binds
binding result [5]: binds
Kd [6]: 1070 nM and 1200 nM
binding result (hHsp70-CSSSS (hHsp70 …)): binds

— article PMC7294093, “S-Glutathionylation of human inducible Hsp70 reveals a regulatory mechanism involving the C-terminal α-helical lid” (The Journal of Biological Chemistry, 2020)
